Test results reported in patent US20250296984A1, “THERAPEUTIC AND DIAGNOSTIC AGENTS AND USES THEREOF” (priority 2022, published 2025).

T1: human proteins on HuProt Human Proteome Microarray (Homo sapiens, UniProt Q14847)
T1 construct: purchased CDI Labs (HuProt); host or cells: yeast S. cerevisiae
T1 sequence (Q14847 1-261): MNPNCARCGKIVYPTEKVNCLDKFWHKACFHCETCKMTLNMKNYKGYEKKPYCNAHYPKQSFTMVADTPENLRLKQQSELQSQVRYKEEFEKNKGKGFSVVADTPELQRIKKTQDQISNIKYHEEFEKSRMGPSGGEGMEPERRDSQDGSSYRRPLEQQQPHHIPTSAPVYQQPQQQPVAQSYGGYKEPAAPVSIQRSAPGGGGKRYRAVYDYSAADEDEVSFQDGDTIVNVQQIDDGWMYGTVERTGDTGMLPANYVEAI

T2: human proteins on HuProt Human Proteome Microarray (Homo sapiens, UniProt Q96F63)
T2 construct: purchased CDI Labs (HuProt); host or cells: yeast S. cerevisiae
T2 sequence (Q96F63 1-343): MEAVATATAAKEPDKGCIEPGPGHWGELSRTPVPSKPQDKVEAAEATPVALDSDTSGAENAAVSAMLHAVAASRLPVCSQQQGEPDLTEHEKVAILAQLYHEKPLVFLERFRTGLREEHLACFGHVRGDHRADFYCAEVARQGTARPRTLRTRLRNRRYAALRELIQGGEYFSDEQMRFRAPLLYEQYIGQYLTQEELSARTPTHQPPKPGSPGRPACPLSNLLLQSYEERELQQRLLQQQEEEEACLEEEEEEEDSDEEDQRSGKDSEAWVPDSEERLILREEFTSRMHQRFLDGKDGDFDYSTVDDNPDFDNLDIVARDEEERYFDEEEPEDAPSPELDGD

T3: human proteins on HuProt Human Proteome Microarray (Homo sapiens, UniProt Q9UK22)
T3 construct: purchased CDI Labs (HuProt); host or cells: yeast S. cerevisiae
T3 sequence (Q9UK22 1-296): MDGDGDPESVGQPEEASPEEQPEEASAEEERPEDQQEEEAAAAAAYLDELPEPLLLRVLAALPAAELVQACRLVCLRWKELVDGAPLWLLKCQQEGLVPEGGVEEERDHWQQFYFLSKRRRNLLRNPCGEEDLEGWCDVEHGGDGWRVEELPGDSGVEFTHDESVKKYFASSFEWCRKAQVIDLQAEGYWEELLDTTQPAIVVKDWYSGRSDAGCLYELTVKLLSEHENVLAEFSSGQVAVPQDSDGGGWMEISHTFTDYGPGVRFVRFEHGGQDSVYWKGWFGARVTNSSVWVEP


Key:
[1] = molecular target: T1, human proteins on HuProt Human Proteome Microarray; assay: HuProt Human Proteome Microarray, off-target human proteins; assay type: binding; set-up: key to Z Score: Z = (F635 − mean F635 of all spots) / SD; average of duplicate spots; conditions: Protein: LASP1
From the text: (§1) The HuProt™ Human Proteome Microarray provides the largest number of unique, full-length, individually purified human proteins on a single microscope slide. It provides >21,000 unique human proteins, isoform variants, and protein fragments—covering 16,794 unique genes. This includes 15,889 of the 19,613 canonical human proteins described in the Human Protein Atlas, with broad coverage across protein subclasses. This allows thousands of interactions to be profiled in a high-throughput manner. The full-length recombinant proteins are expressed in the yeast S. cerevisiae, purified, and printed on glass slides in duplicate along with a set of control proteins (GST, BSA, histones, IgG, etc.). The full list of the different proteins included in the HuProt™ Human Proteome Microarray as used in this Example is provided as “List B” in the Research Disclosures publication (ISSN 0374-4353, Questel Ireland Ltd) with database numbers 707018, 707019 and 707020, each entitled “Large scale protein arrange target protein identities” and each digitally published on 27 Jan. 2023, the contents of each of which are incorporated herein by reference in their entirety, fo the purposes of the disclosure of the proteins defined by “List B”. “List B” begins in Research Disclosures publication 707018, is continued in Research Disclosures publication 707019, and concludes Research Disclosures publications 707020, and so the three publications are to be read consecutively as a single disclosure of the “List B” proteins. The HuProt™ microarray is not restricted to a particular type of surface coating, although the default is glass coated with ultrathin nitrocellulose film for the non-covalent, yet irreversible, capture of active proteins to the surface.
(§2) Samples of humanised 7B1F3 and mouse 7B1F3 antibodies were analysed for binding specificities on HuProt™ human proteome arrays. A peptide with the sequence TDVLNQSKPVTL (“Peptide 3”) was added to the arrays at 0.1 mg/ml as a control.
(§3) After blocking, the arrays were probed with the antibody samples (0.1 μg/ml) at room temperature for 1 hour. Then the arrays were washed with TBST for 10 min×3 and probed with Alexa647-anti-human IgG Fc or Alexa647-anti-mouse IgG secondary antibodies under conditions optimized by CDI Labs for signal detection.
(§4) • Non-specific hits that directly bind to the secondary antibodies were eliminated from the analysis of the samples. • CDI software was used to quantify the specificity of each individual sample to specific proteins on the array based on Z Scores. • Z score is the average Z score of the duplicate spots of a given protein (each protein is printed in duplicate on a HuProt™ array). The Z score of each spot on a given array is calculated according to the algorithm below:
(§5) Z=[F635−F635(avg)]/F635(std) • F635(avg) and F635(std) are the average and standard deviation of the F635 values of all spots on the array, respectively. • S score is the difference of the Z Scores of a given protein and the one ranked next to it. If the S score of the top hit is >3, the antibody is considered to be highly specific for the top hit. • F635 is the average foreground signal intensity of 2 replicate spots of a given protein in the detection channel (635 nm). • B635 is the average background signal intensity of 2 replicate spots of a given protein in the detection channel (635 nm).

[2] = molecular target: T2, human proteins on HuProt Human Proteome Microarray; assay: as above; assay type: binding; set-up: key to Z Score: Z = (F635 − mean F635 of all spots) / SD; average of duplicate spots; conditions: Protein: CCDC97
From the text: as §1, §2, §3, §4, §5

[3] = molecular target: T3, human proteins on HuProt Human Proteome Microarray; assay: as above; assay type: binding; set-up: key to Z Score: Z = (F635 − mean F635 of all spots) / SD; average of duplicate spots; conditions: Protein: FBXO2
From the text: as §1, §2, §3, §4, §5

pancreatic tissue = assay: IHC on pancreatic tissues; set-up: species or system human
From the text: FIG. 20. Some pancreatic tissues were studied to exclude general off-target binding of the 28-13-5G6-1D3 to this tissue type. […] The HCMV ISH is negative indicating absence of viral HCMV DNA in the normal pancreatic tissue sample. […] Thus, the same sample is positive for both HCMV proteins US28 and IE and HCMV DNA but negative for the negative control IgG indicating specific antibody binding. The US28 protein staining is cytoplasmic as expected, the IE protein is mostly located in the cell nucleus as expected since it is a nuclear protein. […] A colour version of FIG. 20 is also provided.

Row | Molecule | F635 [1] | Z Score [1] | F635 [2] | Z Score [2] | F635 [3] | Z Score [3] | IHC staining of normal pancreatic tissue (pancreatic tissue; HCMV ISH negative sample) | IHC staining of pancreatic tissue sample from another patient (pancreatic tissue; HCMV ISH positive sample)
1 | 7B1F3: mouse IgG1 kappa antibody against US28 ECD1 Peptide-N; VH SEQ ID NO: 211, VL SEQ ID NO: 213 (antibody, V domains shown, Mature form of VH sequence of 7B1F3, without the leader sequence; Mature form of VL sequence of 7B1F3, without the leader sequence) VH: EVQLQQSGAELAKPGASVKMSCKASGYTFTNYWMHWVKQRPGQGLEWIGYVNPRTGYTEYNQKFKDKATLTADKSSRTAYMQLSSLTSEDSAVYSCARILNGTGFAYWGQGTLVTVSA VL: DIVLTQSPSSLTVSVGEKFTMSCKSSQSLLYSSNQKNYLAWYQQKPGQSPKLLIYWASTRESGVPDRFTGSGSGTDFTLAISSVKPEDLAIYYCQQYYSFPLTFGAGTKLEIK | 3681 | 10.575 | 2080 | 5.922 | 4683 | 13.486 |  | 
2 | 13-5G6-1D3: mouse monoclonal IgG1 kappa antibody against US28 ECD3; VH SEQ ID NO: 12, VL SEQ ID NO: 18 (antibody, V domains shown, Mature form of VH sequence of 1D3, without the leader sequence; Mature form of VL sequence of 1D3, without the leader sequence) VH: EVKLVESGGGLVQPGGSLRLACATSGFTFTDYYMSWVRQPPGKALEWLGFIRSKANGYTTEYSASVKGRFTISRDNSQSILYLQMNTLRSEDSATYYCARDERRTAWLAYWGQGTLVTVSA VL: DVLMTQTPLSLPVSLGDQASISCRSSQSIVHSNGNTYLDWYLQKPGQSPKLLIYKVSNRFSGVPDRFSGSGSGTDFTLKISRVEAEDLGVYYCFQGSHVPTWTFGGGTKLEIK |  |  |  |  |  |  | negative staining | positive
